Experimental data from the supplement of paper PMC12636428.

System: Saccharomyces cerevisiae
Assay: transcriptional activation domain activity (GFP:mCherry ratio, weighted mean of sorted bins, harmonized to initial dataset scale) (arbitrary fluorescence ratio units); higher = stronger transcriptional activation
Settings: beta-estradiol 1 µM; induction time 4 h
Protocol: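 53-aa protein tiles (fungal proteins plus yeast TF control tiles) fused C-terminally to a DBD-estrogen-binding domain-mCherry synthetic TF, integrated in S. cerevisiae (URA3 locus) with a GFP reporter. Cells were induced with 1 uM beta-estradiol for 4 h at 30 C, FACS-sorted into 8 bins by GFP:mCherry ratio and barcodes sequenced. Activity is the read-weighted mean bin fluorescence (GFP:mCherry), averaged over barcodes (median 12); tiles under 50 reads were discarded. New active-learning values were harmonized by linear fit onto the scale of the initial (Hummel et al.) dataset. The assay saturates at low and high signal.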

MNGDRDSGRSRDHYSSRGDRDDRRDRDRDRRRRSRSPGHRSSRRDYEVDTYSS
transcriptional activation domain activity: 45700

MFVNLFFSLLTPICTLCFFCNPLSLPLPFFPSHLFPLFSILPLLFFFFFLCCY
transcriptional activation domain activity: 46200

AAPVKKEEPKKEETPKAAEETATAPVAETPAVAAAAATEAPKEEAKEEPKRRS
transcriptional activation domain activity: 35400

TPKKAKKSAERVDDSDASDDGDGYGGGGGEDGRKRAAKPKKGKRAAAGGGSAG
transcriptional activation domain activity: 26200

CVFLSILCLFIHLLLIVSLLLFFCHCLFFSVPITLVCFSMTIHLTPKIFILLF
transcriptional activation domain activity: 52700

AWAVQTKVYLNYLWHTTNKFTTGFKVIYIQCHPDFVTWEQMKIMAMFLCCLCF
transcriptional activation domain activity: 55800

KQSWSYFYKVLQGLLMDLFFIITIPIYFYYYLPNWNPPLWTLLDFTTLESLNF
transcriptional activation domain activity: 69000

YSQLILYLLAKAKLHWNELQNLQVIFADLFEHIHIAGILPNKYQTLSVMANAL
transcriptional activation domain activity: 56500

FHLPCLSLRWWRWCWGHYRLILVVLCLVLLPCLVFLDTIYVYKAFFQIKLENT
transcriptional activation domain activity: 34500

CKVHAWLVGLGDVPPREMLQGLGRSLLVRSVVLSCHCLGRMSFVICIHAVHIM
transcriptional activation domain activity: 42700

VLFAVAVYMNHVPTAILWMSCVSAKLFSFCSQTFFVIRVYFLPWRFDLVFIPL
transcriptional activation domain activity: 37600

NGLLRDVHVVFQDSSFCARLTEQIRRRLRMISSNWRETCCMEMLITLSLRLFH
transcriptional activation domain activity: 45100

MSSNYENQAQQESDQGSSSKSQKSRHRASVACATCRERRIRCVVPAGEASCAQ
transcriptional activation domain activity: 43100

NCVGHFTYGHFLRFLFYVDVACAYHLSMITWRVFHAMHASYWASPFTEMIFII
transcriptional activation domain activity: 65500

MISLVYTGVDGEFGMLFGFGFWFCFLMGRRFTVFVFVFLDMFWGHVFCFVCIS
transcriptional activation domain activity: 45600

AVTCMTIFATISLKLNQQDMLTPWYTSLPLHRRLLHQWFCGLLHWMGFYLVWS
transcriptional activation domain activity: 65900

PLLVLSKRLHSIFMLRCFNDCFAVLGLWLAIFCYQRDQWHLGSFFYSTGLNVK
transcriptional activation domain activity: 71500

KLRKKQHGSNKDTIPSSQSRDIANDYDRGSTDNNLVTTTSTSSIFHDEDLTFF
transcriptional activation domain activity: 44400

GEDTAQEGGEEGATSADEEETASTTRSGRKPKKIKTAVPIKRKRRSGRGGIAA
transcriptional activation domain activity: 31200

MLWGDTQILVVLLHYILPTYQFPRFYFYYMYLPLRSWLLVDNPFLFSYSALIQ
transcriptional activation domain activity: 63200

LRHICLLLSIWSKHLIERLKKLPANVRLTIVQALVRFVIPKLHIYGHKLLCQL
transcriptional activation domain activity: 44500

LKSKALDAKVPIGLFTVLFFHPFLFPFCSLFPALFAPSFLFLFPLCFVTHFFL
transcriptional activation domain activity: 52400

LQILRVVLHLLIFDLHSSSSLTFPLPFPLALPFFIYPLNFLFLFWSFMCTFMY
transcriptional activation domain activity: 84800

SEPELYVPQFKLDPVNGFWFPHFVKYIILILMLGLYVLIIFWTFMICKVVYRL
transcriptional activation domain activity: 33300

MNPTPAVFALFFPVIFCVYICYAWFLLFFVFWEPFFFLHIFLYRIILLSIWNL
transcriptional activation domain activity: 29900

IGENDTVDGKRFCTFYPQYREGRVRVNLGVTRLSFRAFYICPLAFTIARYLLN
transcriptional activation domain activity: 67400

MGRLGTLGLSQEQLDNLRYYKYAAVDRSQLTKYVLRHYWNWAITLFPTWIAPN
transcriptional activation domain activity: 32100

AGALLDLYLRRNRCYVSNGYLGCSVLYLSTSLVVSCFLSWVTATILIILDIKR
transcriptional activation domain activity: 83600

TRMLLHWFHCQDNVWYYYVAFFFAELLVYTVMIVSIGSILFQWRFFCRVAYKM
transcriptional activation domain activity: 32000

SICRLGVGLSITGYRLGSMVLLRHDLRLIVTVFSMHLKYFVSFARPSMKILLR
transcriptional activation domain activity: 67300

RLWCFSRGFMLVNYNVLVLSCQLAWSSEFLMSFWTFVFVLILMLLYYFVWAHK
transcriptional activation domain activity: 43700

PFLLLLPVSLFSFLFFHFFYLFVSFSFFLFCYFFYFLHFFLTFLIFLLFLTFL
transcriptional activation domain activity: 34900

IIQCLVLGKYTKCAPRTIETLLLYLHLKYNQHEDNQMEIWVLLGVIVRLALRM
transcriptional activation domain activity: 44700

KQYCVRPNSGRIEAGKEVEVQVLLQAMKEDPPADAKCRDKFLVQSVAISADKE
transcriptional activation domain activity: 17800

AGNATAGTGTGKGKGKGKGKGKGKGKKAGKNAGKNAGKNAGKNSTAAAGGQQK
transcriptional activation domain activity: 20100

MMLWWRWRWILLLMLMLMLRWRWWWHTSLWWRWSKCLLTRLLLLLLLWWWDSF
transcriptional activation domain activity: 55000

MLAYTHFLIMLDRDILNICCVIYFYCLVFICLLLTFLLLIAPLNTCVGLCWKG
transcriptional activation domain activity: 54400

YSILLSVILIFWWSVFTYYPSHLSYLSQRFSYYVWGDDSIDAVTVFKAWVYAH
transcriptional activation domain activity: 61800

YAEWLIEPEQNNGTWVADVLWPAINLDLQWISLHWNQSSWDLWWPPVWGGSYW
transcriptional activation domain activity: 53200

KESRKERHHDSDRRHKRRHRSREGGEGRDRDRDHRRHHRHGRDRSRSRERKLG
transcriptional activation domain activity: 67400

LFHSVVSIYRLLFFFSVDHSAGVRFFFCFLFLPSLIFCIAFPISIISGFLVFF
transcriptional activation domain activity: 49600

MTVDTLSYTLFPFYSLLSHFLLLLAEIVLCLKYCLLLTLFSILLFLLVFLFLA
transcriptional activation domain activity: 32800

MYFVYTYSGLAFFFFFSFFWCTSIYLNILLVLFYLALGFCKVYFLLLFYLPKT
transcriptional activation domain activity: 39900

LSELSSALDPTQAQYAYARIEYANDTESKRVKFILVIWIGEGTKVMRKARVSI
transcriptional activation domain activity: 37600

RIMLQNAILPWFGKHDLRGKVFGCQIIELFHIFGMSFLNWIWSSGLVLATFPP
transcriptional activation domain activity: 56600

AESGGESAGNASGEDFAAPKKKSSRSRIKKALQSLGSGKLSPKNSRTPKASPV
transcriptional activation domain activity: 28400

LPRFFFLSFYTFLLIFPLLHLFHHLSLLFSPPILLYSSLILFFSHFLPLLLFL
transcriptional activation domain activity: 38900

NGFLLQVVRWNTRPHKEVVQLLTKYFTGAKHQRLLSENIGLIAEWTDRICQLG
transcriptional activation domain activity: 58900

KGFSLTELVFWLWSLGFILDELVGFSDAGFTLYVMSLWNWFDLIILLLLCSYA
transcriptional activation domain activity: 49900

ESVSESESASASESAAEEASAAPEEDAMWSNIMKKFARRDEEESVSESASASE
transcriptional activation domain activity: 54900

MRYRVNYMSTQGIHYSPFLPWIINIFKPNIMLICLFSFLPYFILFIMKSMLVL
transcriptional activation domain activity: 74600

NGTPETHGESIDSKRPRACEACRGLKVKCEPDPTNPDGPCKRCTKANRNCVVT
transcriptional activation domain activity: 25800

VDRSHLELIFGLPIWRLSGILVQTVWYVFQTGFSTLLSLCLFLVSAKRWIVWR
transcriptional activation domain activity: 52400

MQGGRLVIYLYYFLMEVFNVLFFLFLFRCWSLLPSALGGGLCYLFLVWGLLFC
transcriptional activation domain activity: 67000

TDDAPRVKTKAEKEKEKKEKEKQRKKEMAAKKKANAPAKQEAAKPAETKAAAA
transcriptional activation domain activity: 41100

YADMLMRIWSVWEFALWQYVSNEEFMGLLGFSRLRFRRMYLLVNNGCLFWRIF
transcriptional activation domain activity: 72400

WYHHVPLCILVLLLLAPHPSILYVLLNYHYLTLHATHYFIVHLLTIYAFSFLA
transcriptional activation domain activity: 45900

KPAGIMMFYFPCLYGTFLVGCLGHEINILSMAIANAKLFLLSFLMRGMLCTWN
transcriptional activation domain activity: 43200

PGEVSEAEANGDAPKAEAAVAPDSDEAAKPKKKKKARKPKAAKKGEDGEPAAA
transcriptional activation domain activity: 17100

FFFSSIFFIVFGGPGQLFFFFSILLFLYPISTFMRCIIHRVFLLFFAFFFFLF
transcriptional activation domain activity: 29400

IAILRLYSEPDVDLLRLSSQVLAASLLLDDHFICDIKNIRSVVAMIPRVLTLP
transcriptional activation domain activity: 46800

TIIGLTSAVLLPVVVFIPYIPCWLFLYLVNLLFPLIFICFTGKVIQLTFLYYS
transcriptional activation domain activity: 50100

SFMWVLVWLLVHIFKKFATITVDSATINRLARAFSSFDTGTVLTKEVILRLWR
transcriptional activation domain activity: 52100

MVWFWFWLRYLFFFFFLFSKNTLIGLFLLLLLLLHLFLRSLPILLVCASRVFF
transcriptional activation domain activity: 53300

YEHSFEIWLACTVVFPGAGNIGFTLLEYRLGHRSLASSFFENITWIPFFFFFF
transcriptional activation domain activity: 53900

EVAEEAAAAAAPEKKTRRGASKKAAAEKAAAAEEEGEKAAQKAEKAAEKAAEK
transcriptional activation domain activity: 33200

MMMGTIVKSFFLFTFTFSIFFFYFFPRVLFTPFFFYILDLSLFFIVVLIFFSF
transcriptional activation domain activity: 54300

RRSHRSHHSSRSRDEEGKERRSSRGEDEKRAHRSRDEDEGRRRRRSHRDRDEE
transcriptional activation domain activity: 18900

AEEEQKKPKGKKAAAASKPKKSSDDEPAPGKSKPAARTGSIKGKSTGTKAGAQ
transcriptional activation domain activity: 22300

CCQSNSLLNMENYLVPYDNFREVVDSRLQEESHSNGVDNSNSNSDNKDSIRPK
transcriptional activation domain activity: 24200

PCSHTILNYGMTLSVSLVVVFRVSHMSFLSSSELSFLRGYHMMLASAFFLFVF
transcriptional activation domain activity: 36600

DKPKTKPAAAKAKPKSATTKAKPASKASAKPSSKAGAKKPASKKATAAAAAKK
transcriptional activation domain activity: 12000

LTQSRGFIWPPILLAVFFSALGGFYWWSASFFLLASPVAFAPCLFWVLLLFLF
transcriptional activation domain activity: 18000

VPYFHGLQPNNHYIHRLVVIFLQFAPSFIILTISYEGLFYFGFCLCLFCWILL
transcriptional activation domain activity: 40300

MYLFFFFFFFGWVLSLLLYVFFGLGIIGIGIVLFVFVLAFFFLFLGGIFFCGL
transcriptional activation domain activity: 43900

LFVFLLFVLFLLVLFMLVLLLLFLPLLLLLPLLLWILWILILRLFFSFLDISD
transcriptional activation domain activity: 36900

MYNLNLFYFSFFLSLSLFLFFFPLPFFFRSVWFANLFFVLLFLYYVPFLSHSC
transcriptional activation domain activity: 58700

HPLSWAKFALVMGMLSSLGVLVISTYSVSLSILQFARPLQYIPRFLWTIATLV
transcriptional activation domain activity: 34400

DLFMTLGWISGFMAELIAVQGACSLGWHPGCTNFNWLMAWLFFLFLSWGAGFF
transcriptional activation domain activity: 66400
